In the test the target is uPAR (Homo sapiens, UniProt Q03405). In words: Yeast two hybrid with uPAR. The format is binding. Also noted: the CDS of the above genes was subcloned to pGADT7 (YouBio, VT1639); expressed in transfected cells; host or cells: yeast Y2HGold. The text has this:
[…]
In order to explore how GhJAZ1 enters cancer cells, we cloned the genes of most tumor surface receptors, including uPAR (NCBI database accession number of NM_002659.4), CCK1R (NP_000721.1), CCK2R (NP_001350481.1), HER2 (NP_004439.2), GRPR (NP_005305.1), MUC1 (NP_001358649.1), VEGFR1 (NP_002010.2), Insulin receptor (NM_000208.4), NTR (XM_011528827.2), PSMA (XM_017017432.1), TFR1 (NM_001128148.3), TFR2 (NM_003227.4), PEPT1 (NM_005073.4), APN (NM_001150.3). […] We detected the interaction of GhJAZ1 with uPA (as the ligand of uPAR, NCBI database accession number of NP_002649.2) and uPAR by yeast two hybrid (the steps of the experiment as Example 3). […]

Chain of uPAR (Q03405 23-305): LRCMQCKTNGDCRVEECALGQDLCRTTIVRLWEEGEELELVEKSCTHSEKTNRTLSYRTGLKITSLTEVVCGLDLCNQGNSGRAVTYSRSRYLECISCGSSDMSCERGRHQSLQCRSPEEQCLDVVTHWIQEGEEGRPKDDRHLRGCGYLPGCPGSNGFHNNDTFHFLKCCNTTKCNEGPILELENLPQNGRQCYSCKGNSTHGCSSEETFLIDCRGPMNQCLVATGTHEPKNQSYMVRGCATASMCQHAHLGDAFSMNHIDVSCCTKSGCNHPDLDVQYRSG

B1: GhJAZ1: cotton JAZ1 protein, gene number Gh_A05G0260, sequence SEQ ID No. 4; prokaryotically expressed with His tag, about 30 KD (protein)
chain: MSSCSESTAMKPARSPEKPSFAQTCNLLSQYLKEKGSFGDLSLGMTCNVEANGTPVVPPPTMNLFPLNDKSDDVCGRNGGNPKNLTSMDLFPQQAGLASKDDSPNKLEPQTAPMTIFYGGQVIVFNDFPANKAKEIMLLASNSSSQSNNSFNPIPFTSSIARSPIESSIGVPPTSKPVHPAQRAVPGDLPIARRASLHRFLEKRKDRITAKAPYQINNSAAAPSLSGDNKSWLGLAAQSP
modifications: His tag
notes: prokaryotically expressed with His tag, about 30 KD
As for B1, the “interaction with uPAR” value is listed as “interacted”.

B2: GhJAZ1 after deletion of NT domain: GhJAZ1 mutant with NT domain deleted, protein sequence SEQ ID No. 83 (protein)
chain: MSSCSESTAMKPARSPEANGTPVVPPPTMNLFPLNDKSDDVCGRNGGNPKNLTSMDLFPQQAGLASKDDSPNKLEPQTAPMTIFYGGQVIVFNDFPANKAKEIMLLASNSSSQSNNSFNPIPFTSSIARSPIESSIGVPPTSKPVHPAQRAVPGDLPIARRASLHRFLEKRKDRITAKAPYQINNSAAAPSLSGDNKSWLGLAAQSP
Regarding B2, the “interaction with uPAR” value is listed as “significantly weakened”.

The record behind these values is patent publication US20240279288A1, “APPLICATION OF PLANT JAZ PROTEINS AND DERIVED POLYPEPTIDES IN PREVENTION AND TREATMENT OF HUMAN AND ANIMAL TUMORS” (ANYANG INSTITUTE OF SINO-COTTON INDUSTRY INNOVATION, priority 2021, published 2024).
